Here are results for seven molecules from US20110105394A1 (Novo Nordisk, published 2011).

T1: Amylin 3(a) receptor (human calcitonin receptor (CTa) with RAMP-3) (human, UniProt P30988 25-474; O60896 24-148, limits assumed)
T1 sequence (looked up) 1: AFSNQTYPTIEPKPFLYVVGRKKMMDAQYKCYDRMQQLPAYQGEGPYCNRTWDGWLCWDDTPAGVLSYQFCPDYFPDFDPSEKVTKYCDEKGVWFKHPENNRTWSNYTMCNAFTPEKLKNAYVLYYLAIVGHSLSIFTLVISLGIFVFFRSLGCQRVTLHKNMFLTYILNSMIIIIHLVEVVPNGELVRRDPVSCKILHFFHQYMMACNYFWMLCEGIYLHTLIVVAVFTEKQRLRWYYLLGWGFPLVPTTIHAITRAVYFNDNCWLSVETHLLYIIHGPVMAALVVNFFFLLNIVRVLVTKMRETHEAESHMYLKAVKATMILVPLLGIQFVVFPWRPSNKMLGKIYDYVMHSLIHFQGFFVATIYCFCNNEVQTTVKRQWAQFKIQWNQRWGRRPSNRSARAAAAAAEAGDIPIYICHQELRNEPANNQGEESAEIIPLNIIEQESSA
T1 sequence (looked up) 2: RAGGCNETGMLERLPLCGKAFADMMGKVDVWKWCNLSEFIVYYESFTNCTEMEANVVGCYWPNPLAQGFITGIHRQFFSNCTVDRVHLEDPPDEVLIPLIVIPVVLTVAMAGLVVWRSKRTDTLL

B1: N-alpha-[(S)-4-Carboxy-4-(19-carboxynonadecanoylamino)butyryl]-Arg-[Ala17]-pramlintide (peptide)
peptide: X2-RKCNTATCATQRLANFLAHSSNNFGPILPPTNVGSNTY-NH2
modifications: disulfide 3-8
SMILES: CC[C@H](C)[C@H](NC(=O)[C@@H]1CCCN1C(=O)CNC(=O)[C@H](Cc1ccccc1)NC(=O)[C@H](CC(N)=O)NC(=O)[C@H](CC(N)=O)NC(=O)[C@H](CO)NC(=O)[C@H](CO)NC(=O)[C@H](Cc1c[nH]cn1)NC(=O)[C@H](C)NC(=O)[C@H](CC(C)C)NC(=O)[C@H](Cc1ccccc1)NC(=O)[C@H](CC(N)=O)NC(=O)[C@H](C)NC(=O)[C@H](CC(C)C)NC(=O)[C@H](CCCNC(=N)N)NC(=O)[C@H](CCC(N)=O)NC(=O)[C@@H](NC(=O)[C@H](C)NC(=O)[C@@H]1CSSC[C@H](NC(=O)[C@H](CCCCN)NC(=O)[C@H](CCCNC(=N)N)NC(=O)CC[C@H](NC(=O)CCCCCCCCCCCCCCCCCCC(=O)O)C(=O)O)C(=O)N[C@@H](CC(N)=O)C(=O)N[C@@H]([C@@H](C)O)C(=O)N[C@@H](C)C(=O)N[C@@H]([C@@H](C)O)C(=O)N1)[C@@H](C)O)C(=O)N[C@@H](CC(C)C)C(=O)N1CCC[C@H]1C(=O)N1CCC[C@H]1C(=O)N[C@H](C(=O)N[C@@H](CC(N)=O)C(=O)N[C@H](C(=O)NCC(=O)N[C@@H](CO)C(=O)N[C@@H](CC(N)=O)C(=O)N[C@H](C(=O)N[C@@H](Cc1ccc(O)cc1)C(N)=O)[C@@H](C)O)C(C)C)[C@@H](C)O
B2: N-alpha-[(S)-4-Carboxy-4-(19-carboxynonadecanoylamino)butyryl]-Arg-[Gly17]-pramlintide (peptide)
peptide: X2-RKCNTATCATQRLANFLGHSSNNFGPILPPTNVGSNTY-NH2
modifications: disulfide 3-8
SMILES: CC[C@H](C)[C@H](NC(=O)[C@@H]1CCCN1C(=O)CNC(=O)[C@H](Cc1ccccc1)NC(=O)[C@H](CC(N)=O)NC(=O)[C@H](CC(N)=O)NC(=O)[C@H](CO)NC(=O)[C@H](CO)NC(=O)[C@H](Cc1c[nH]cn1)NC(=O)CNC(=O)[C@H](CC(C)C)NC(=O)[C@H](Cc1ccccc1)NC(=O)[C@H](CC(N)=O)NC(=O)[C@H](C)NC(=O)[C@H](CC(C)C)NC(=O)[C@H](CCCNC(=N)N)NC(=O)[C@H](CCC(N)=O)NC(=O)[C@@H](NC(=O)[C@H](C)NC(=O)[C@@H]1CSSC[C@H](NC(=O)[C@H](CCCCN)NC(=O)[C@H](CCCNC(=N)N)NC(=O)CC[C@H](NC(=O)CCCCCCCCCCCCCCCCCCC(=O)O)C(=O)O)C(=O)N[C@@H](CC(N)=O)C(=O)N[C@@H]([C@@H](C)O)C(=O)N[C@@H](C)C(=O)N[C@@H]([C@@H](C)O)C(=O)N1)[C@@H](C)O)C(=O)N[C@@H](CC(C)C)C(=O)N1CCC[C@H]1C(=O)N1CCC[C@H]1C(=O)N[C@H](C(=O)N[C@@H](CC(N)=O)C(=O)N[C@H](C(=O)NCC(=O)N[C@@H](CO)C(=O)N[C@@H](CC(N)=O)C(=O)N[C@H](C(=O)N[C@@H](Cc1ccc(O)cc1)C(N)=O)[C@@H](C)O)C(C)C)[C@@H](C)O
B3: N-alpha-[(S)-4-Carboxy-4-(19-carboxynonadecanoylamino)butyryl]-Arg-[His17]-pramlintide (peptide)
peptide: X2-RKCNTATCATQRLANFLHHSSNNFGPILPPTNVGSNTY-NH2
modifications: disulfide 3-8
SMILES: CC[C@H](C)[C@H](NC(=O)[C@@H]1CCCN1C(=O)CNC(=O)[C@H](Cc1ccccc1)NC(=O)[C@H](CC(N)=O)NC(=O)[C@H](CC(N)=O)NC(=O)[C@H](CO)NC(=O)[C@H](CO)NC(=O)[C@H](Cc1c[nH]cn1)NC(=O)[C@H](Cc1c[nH]cn1)NC(=O)[C@H](CC(C)C)NC(=O)[C@H](Cc1ccccc1)NC(=O)[C@H](CC(N)=O)NC(=O)[C@H](C)NC(=O)[C@H](CC(C)C)NC(=O)[C@H](CCCNC(=N)N)NC(=O)[C@H](CCC(N)=O)NC(=O)[C@@H](NC(=O)[C@H](C)NC(=O)[C@@H]1CSSC[C@H](NC(=O)[C@H](CCCCN)NC(=O)[C@H](CCCNC(=N)N)NC(=O)CC[C@H](NC(=O)CCCCCCCCCCCCCCCCCCC(=O)O)C(=O)O)C(=O)N[C@@H](CC(N)=O)C(=O)N[C@@H]([C@@H](C)O)C(=O)N[C@@H](C)C(=O)N[C@@H]([C@@H](C)O)C(=O)N1)[C@@H](C)O)C(=O)N[C@@H](CC(C)C)C(=O)N1CCC[C@H]1C(=O)N1CCC[C@H]1C(=O)N[C@H](C(=O)N[C@@H](CC(N)=O)C(=O)N[C@H](C(=O)NCC(=O)N[C@@H](CO)C(=O)N[C@@H](CC(N)=O)C(=O)N[C@H](C(=O)N[C@@H](Cc1ccc(O)cc1)C(N)=O)[C@@H](C)O)C(C)C)[C@@H](C)O
B4: N-alpha-[(S)-4-Carboxy-4-(19-carboxynonadecanoylamino)butyryl]-[Arg17]-pramlintide (2-37) (peptide)
peptide: {C20 diacid-γGlu}-CNTATCATQRLANFLRHSSNNFGPILPPTNVGSNTY-NH2
modifications: disulfide 1-6
SMILES: CC[C@H](C)[C@H](NC(=O)[C@@H]1CCCN1C(=O)CNC(=O)[C@H](Cc1ccccc1)NC(=O)[C@H](CC(N)=O)NC(=O)[C@H](CC(N)=O)NC(=O)[C@H](CO)NC(=O)[C@H](CO)NC(=O)[C@H](Cc1c[nH]cn1)NC(=O)[C@H](CCCNC(=N)N)NC(=O)[C@H](CC(C)C)NC(=O)[C@H](Cc1ccccc1)NC(=O)[C@H](CC(N)=O)NC(=O)[C@H](C)NC(=O)[C@H](CC(C)C)NC(=O)[C@H](CCCNC(=N)N)NC(=O)[C@H](CCC(N)=O)NC(=O)[C@@H](NC(=O)[C@H](C)NC(=O)[C@@H]1CSSC[C@H](NC(=O)CC[C@H](NC(=O)CCCCCCCCCCCCCCCCCCC(=O)O)C(=O)O)C(=O)N[C@@H](CC(N)=O)C(=O)N[C@@H]([C@@H](C)O)C(=O)N[C@@H](C)C(=O)N[C@@H]([C@@H](C)O)C(=O)N1)[C@@H](C)O)C(=O)N[C@@H](CC(C)C)C(=O)N1CCC[C@H]1C(=O)N1CCC[C@H]1C(=O)N[C@H](C(=O)N[C@@H](CC(N)=O)C(=O)N[C@H](C(=O)NCC(=O)N[C@@H](CO)C(=O)N[C@@H](CC(N)=O)C(=O)N[C@H](C(=O)N[C@@H](Cc1ccc(O)cc1)C(N)=O)[C@@H](C)O)C(C)C)[C@@H](C)O
B5: N-alpha-[(S)-4-Carboxy-4-(19-carboxynonadecanoylamino)butyryl]-[Pro17]-pramlintide (2-37) (peptide)
peptide: {C20 diacid-γGlu}-CNTATCATQRLANFLPHSSNNFGPILPPTNVGSNTY-NH2
modifications: disulfide 1-6
SMILES: CC[C@H](C)[C@H](NC(=O)[C@@H]1CCCN1C(=O)CNC(=O)[C@H](Cc1ccccc1)NC(=O)[C@H](CC(N)=O)NC(=O)[C@H](CC(N)=O)NC(=O)[C@H](CO)NC(=O)[C@H](CO)NC(=O)[C@H](Cc1c[nH]cn1)NC(=O)[C@@H]1CCCN1C(=O)[C@H](CC(C)C)NC(=O)[C@H](Cc1ccccc1)NC(=O)[C@H](CC(N)=O)NC(=O)[C@H](C)NC(=O)[C@H](CC(C)C)NC(=O)[C@H](CCCNC(=N)N)NC(=O)[C@H](CCC(N)=O)NC(=O)[C@@H](NC(=O)[C@H](C)NC(=O)[C@@H]1CSSC[C@H](NC(=O)CC[C@H](NC(=O)CCCCCCCCCCCCCCCCCCC(=O)O)C(=O)O)C(=O)N[C@@H](CC(N)=O)C(=O)N[C@@H]([C@@H](C)O)C(=O)N[C@@H](C)C(=O)N[C@@H]([C@@H](C)O)C(=O)N1)[C@@H](C)O)C(=O)N[C@@H](CC(C)C)C(=O)N1CCC[C@H]1C(=O)N1CCC[C@H]1C(=O)N[C@H](C(=O)N[C@@H](CC(N)=O)C(=O)N[C@H](C(=O)NCC(=O)N[C@@H](CO)C(=O)N[C@@H](CC(N)=O)C(=O)N[C@H](C(=O)N[C@@H](Cc1ccc(O)cc1)C(N)=O)[C@@H](C)O)C(C)C)[C@@H](C)O

*1 amine or outer side, *2 acyl side, *3 side chain or, on linkers, in order; H or OH if unused. Bridges are numbered along the chain shown (N, C = ends). Where no end group is shown, it is not given here. Side-chain parts run from the residue outwards. The star is where a group is joined. X2 = (S)‑4‑Carboxy‑4‑(19-carboxynonadecanoylamino)butyryl, O=C(O)CCCCCCCCCCCCCCCCCCC(=O)N[C@@H](CCC(=O)*)C(=O)O; C20 diacid = O=C(O)CCCCCCCCCCCCCCCCCCC(=O)*; γGlu = O=C(O)[C@H](CCC(=O)[*:2])N[*:1]; AEEA = NCCOCCOCC(=O)O

This assay addresses T1, Amylin 3(a) receptor (human calcitonin …). Description: cell-based or functional assay.
As to B1, the “Potency Luciferase” value was 0.1 nM.
For the molecule B2, the “Potency Luciferase” value amounted to 0.1 nM.
With {C20 diacid-γGlu-AEEA}-CNTATCATQRLANFLHHSSNNFGPILPPTNVGSNTY-NH2 (disulfide 1-6) the figure was 0.1 nM; with B3, 0.08 nM.
B4: the “Potency Luciferase” value amounted to 0.2 nM.
With B5 the figure was 8 nM.
Regarding KCK([Glu-Arg-Glu-Glu-C20 diacid])TATCATQRLANFLHHSSDNFGPILPPTNVGSNTY-NH2 (disulfide 2-7) [N-epsilon3-(19-carboxynonadecanoyl-Glu-Glu-Arg-Glu)-[Lys3,His17,Asp21]-pramlintide], the “Potency Luciferase” value worked out at 0.9 nM.
